The experiment concerns the target T1, human 5LOX (Homo sapiens, UniProt P09917).
T1 construct: purchased Cayman Chemical
T1 sequence (P09917 1-674): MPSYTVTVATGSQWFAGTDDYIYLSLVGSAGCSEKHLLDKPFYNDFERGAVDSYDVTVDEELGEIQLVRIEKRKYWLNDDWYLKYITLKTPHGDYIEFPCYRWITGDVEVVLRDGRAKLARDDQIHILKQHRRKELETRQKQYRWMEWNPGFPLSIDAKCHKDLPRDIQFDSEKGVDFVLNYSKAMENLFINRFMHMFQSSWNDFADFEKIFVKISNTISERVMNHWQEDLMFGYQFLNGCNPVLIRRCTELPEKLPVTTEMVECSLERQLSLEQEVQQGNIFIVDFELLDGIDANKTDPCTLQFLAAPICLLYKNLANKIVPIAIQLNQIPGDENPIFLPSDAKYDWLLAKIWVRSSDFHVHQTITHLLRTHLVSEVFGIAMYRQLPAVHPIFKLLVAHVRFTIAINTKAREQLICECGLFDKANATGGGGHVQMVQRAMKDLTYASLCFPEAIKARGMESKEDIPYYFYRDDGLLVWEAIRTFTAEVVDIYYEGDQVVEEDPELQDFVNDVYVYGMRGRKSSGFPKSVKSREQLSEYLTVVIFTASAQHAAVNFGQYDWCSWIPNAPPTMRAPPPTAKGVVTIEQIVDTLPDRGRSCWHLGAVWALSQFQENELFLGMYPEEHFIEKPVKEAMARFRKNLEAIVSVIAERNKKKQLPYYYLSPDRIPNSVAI
Description: Microtiter plate binding of SOD1 to immobilized 5LOX. The settings on record: Scatchard analysis, estimate. Here is the method:
In order to circumvent these limitations of the BIAcore technique, a conceptually different strategy was employed to assess SOD1 binding to immobilized 5LOX. Standard 96 well polypropylene microtiter plates were coated with 5LOX by overnight incubation with the protein, which allows adsorption of the 5LOX through mostly hydrophobic interactions with the plate surface. As a control, half of each microplate was coated with BSA. The entire plate was then blocked with BSA, and subsequently incubated for 1 H with various concentrations of SOD1 dissolved in physiologic saline. Binding of SOD1 to the 5LOX-coated (or BSA-coated) microplate wells was quantified using alkaline phosphatase-conjugated anti-SOD1 polyclonal IgG, and p-nitrophenol as the chromophore. FIG. 15 illustrates preliminary binding data obtained from this experiment. SOD1 bound strongly to 5LOX-coated microplates but not to BSA-coated surfaces. […] Experiments may also be conducted to assess differences in 5LOX binding to wild-type versus mutant SOD1.

Take “SOD1: Cu, Zn-superoxide dismutase, binding partner of 5LOX”: the Kd is 1400 nM.

In general, Kd refers to a measure of binding affinity in units of concentration.

The record behind these values is patent US20040014721A1, “Method for using tethered bis(polyhydroxyphenyls) and O-alkyl derivatives thereof in treating inflammatory conditions of the central nervous system” (Oklahoma Medical Research Foundation, priority 2002, published 2004).
